Assay results published in paper PMC8041291.

Columns and labels:
[1] = system: Glu1 (position 1, -----ECG---); experiment: potentiometry; settings: 25 °C; 0.1 M (4 mM HNO3 + 96 mM KNO3); none (4 mM HNO3 / 96 mM KNO3); metal-free peptide, reduced thiols, argon atmosphere, 0.5-1.5 mM ligand
[2] = system: Nterm (position 1, -----ECG---); experiment: potentiometry; settings: 25 °C; 0.1 M (4 mM HNO3 + 96 mM KNO3); none (4 mM HNO3 / 96 mM KNO3); metal-free peptide, reduced thiols, argon atmosphere, 0.5-1.5 mM ligand
[3] = system: Cterm (position 3, ---ECG-----); experiment: potentiometry; settings: 25 °C; 0.1 M (4 mM HNO3 + 96 mM KNO3); none (4 mM HNO3 / 96 mM KNO3); metal-free peptide, reduced thiols, argon atmosphere, 0.5-1.5 mM ligand
[4] = system: Cys2 (position 2, ----ECG----); experiment: potentiometry; settings: 25 °C; 0.1 M (4 mM HNO3 + 96 mM KNO3); none (4 mM HNO3 / 96 mM KNO3); metal-free peptide, reduced thiols, argon atmosphere, 0.5-1.5 mM ligand
Cterm5 = experiment: potentiometry; settings: 25 °C; 0.1 M (4 mM HNO3 + 96 mM KNO3); none (4 mM HNO3 / 96 mM KNO3); metal-free peptide, reduced thiols, argon atmosphere, 0.5-1.5 mM ligand
Cys1 [5] = experiment: potentiometry; settings: 25 °C; 0.1 M (4 mM HNO3 + 96 mM KNO3); none (4 mM HNO3 / 96 mM KNO3); metal-free peptide, reduced thiols, argon atmosphere, 0.5-1.5 mM ligand
Glu2 = experiment: potentiometry; settings: 25 °C; 0.1 M (4 mM HNO3 + 96 mM KNO3); none (4 mM HNO3 / 96 mM KNO3); metal-free peptide, reduced thiols, argon atmosphere, 0.5-1.5 mM ligand
Cys2 [6] = experiment: potentiometry; settings: 25 °C; 0.1 M (4 mM HNO3 + 96 mM KNO3); none (4 mM HNO3 / 96 mM KNO3); metal-free peptide, reduced thiols, argon atmosphere, 0.5-1.5 mM ligand
Nterm1 [7] = experiment: potentiometry; settings: 25 °C; 0.1 M (4 mM HNO3 + 96 mM KNO3); none (4 mM HNO3 / 96 mM KNO3); metal-free peptide, reduced thiols, argon atmosphere, 0.5-1.5 mM ligand
Glu1 = experiment: potentiometry; settings: 25 °C; 0.1 M (4 mM HNO3 + 96 mM KNO3); none (4 mM HNO3 / 96 mM KNO3); metal-free peptide, reduced thiols, argon atmosphere, 0.5-1.5 mM ligand
Cys1 [8] = experiment: NMR; settings: metal-free PC2; cited from earlier work
Cys2 [9] = experiment: NMR; settings: metal-free PC2; cited from earlier work
Nterm1 [10] = experiment: NMR; settings: metal-free PC2; cited from earlier work

Row | Molecule | pKa [1] | pKa [2] | pKa [3] | pKa [4] | pKa (Cterm5) | pKa (Cys1 [5]) | pKa (Glu2) | pKa (Cys2 [6]) | pKa (Nterm1 [7]) | pKa (Glu1) | pKa (Cys1 [8]) | pKa (Cys2 [9]) | pKa (Nterm1 [10])
1 | Glutathione (GSH, reduced) (not applicable (commercial reduced L-glutathione, Sigma-Aldrich)) | 1.95 | 9.65 | 3.64 | 8.76 | – | – | – | – | – | – | – | – | –
2 | ECECG | – | – | – | – | 4.30 | 9.69 | 3.17 | 8.59 | 10.25 | 2.43 | 9.53 | 9.40 | 10.01
